Experimental data from article PMC9105436.

Molecular target: coconut protein (coconut)
Experiment: ITC; Malvern MicroCal PEAQ-ITC; cell 200 uL with the low-concentration solution, syringe with the high-concentration solution (not told which held which); 13 injections of 3 uL; both solutions dialysed; fit with two sets of constants (N1/N2, K1, K2)

K1: 4.33 µM | K2: 136 µM | N1: 2.69 | N2: 1.51 | dH1: -2.75 kcal/mol | dH2: -1.52 kcal/mol
Substance: gelatin
